In publication PMC2132843 (The Journal of Cell Biology, 1998):

B1: Kel2-DBD (natural protein, S. cerevisiae, UniProt P50090 1-882, looked up)
chain: MVPFKLTNKVPTDTGPSLISAQSVPRPIVFMDNRNNTRIVTPTLPPNQHRGISGASTALPWSPESKNTGKYIWNRVKLKNSPFPRYRHSSSFIVTNDNRIFVTGGLHDQSVYGDVWQIAANADGTSFTSKRIDIDQNTPPPRVGHASTICGNAYVVFGGDTHKLNKNGLLDDDLYLFNINSYKWTIPQPIGRRPLGRYGHKISIIASNPMQTKLYLFGGQVDETYFNDLVVFDLSSFRRPNSHWEFLEPVGDLPPPLTNHTMVAYDNKLWVFGGETPKTISNDTYRYDPAQSEWSKVKTTGEKPPPIQEHASVVYKHLMCVLGGKDTHNAYSNDVYFLNLLSLKWYKLPRMKEGIPQERSGHSLTLMKNEKLLIMGGDKTDYASPNIHDLQTSETDQGEGTLLYTLDLSSLNELCPGIMCESLHAGESFSNSLSGGFTPSKSTESENQEIINILTPRLPDSKVLSYNDIDEGAGSYSSALDDKAFERKSDREEKKPQSSKVDSSINKESPGTGIKVSKKNFPVLRGLTVDSEEYGSSSYKDTSCQKGIPKNLFDDLNLNLQTLRLEAQQKELETARHISQLEKEVQRLMVIKEASKDSNFQTARLKNLEIQKTFLESRINDLKNLLMVKLSQASKLCDQITIQNNGLKTCSEHVTIKRDIIDLENKCDVLKRQNEILVNNMQKITPELHTYLNESSCYLGKLLKSYPTSARPPSSEKDNQIYEKDSLNKIEKVINEMHETVRAKEKLHLETQKLNDERDSLRANLLDNNNKLDALRKLSDGSSKSMDLTKKAIHLSQSELEKYRKNNDDLQKEIDRIKTEQAEQDDKQEQRGAITHGNFDAFHRMKINNLKAELYMSKENRDSLKDELLALKKKLYTLEQKK

Tests used:
two-hybrid = target: the molecule itself; assay: two-hybrid
Kel2-DBD = target: B1; assay: two-hybrid

fold increase of β-galactosidase activity against Kel1-AD or Kel2-DBD alone (Kel2-DBD) [fold]	Binder	interaction relative to that of Kel1p-AD with Kel2-DBD (two-hybrid) [%]
–	B1	~10
> 100	Kel1-AD (natural protein, S. cerevisiae, UniProt P38853 1-1164, looked up) MAGFSFAKKFTHKKHGKTPSDASISDQSREASLSTPPNEKFFTKQETPQKGRQFSQGYHSNVNKTSSPPMFARKQVSESRIQPSAVPPQQRNVSGPSTTLHKQLSKQREYTVWNRIKLQNSPFPRYRHVASAYVTDKNQIYVIGGLHDQSVYGDTWILTAFDNATRFSTTTIDISEATPPPRVGHAAVLCGNAFVVFGGDTHKVNKEGLMDDDIYLLNINSYKWTVPAPVGPRPLGRYGHKISIIATTQMKTKLYVFGGQFDDTYFNDLAVYDLSSFRRPDSHWEFLKPRTFTPPPITNFTMISYDSKLWVFGGDTLQGLVNDVFMYDPAINDWFIIDTTGEKPPPVQEHATVVYNDLMCVVGGKDEHDAYLNSVYFLNLKSRKWFKLPVFTAGIPQGRSGHSLTLLKNDKILIMGGDKFDYARVEEYDLHTSDIDMQRGTIVYTLDLARIKDLCPGVMDVPTDTPTPRNGNLDLATPVTPTSHQTKNMNVPISAAPLASAPSPAPKDFSDADRLNREVHNRNVSTEHQNQSHPVNSESHLIAEPNILTPYVPSESSQTPVMKITSNKPFDTPTIQKEPDLSETMDPTVGNQRIPSSIYGDNLTPANQIKNNSPILETLPSNEIKTPQNGNIEEIKHLPDADEKIDSTTTFDQEINGDKLGTSSMSKVEEDGNVADEDDEIGVAQMASSPSKDQFKIKHYNESSELSQNNTEIDKLSEPVDITIKKSDTAGHDSANHVIDASDEKNVSPMGDVPTDTKNEEASVPINRDATTEVVDRALFEKLRSELQSLKELTHEKALEAGAHIKELETELWQLKSQKNSGTTKEIDELDSVRLQSKCEILEADNHSLEDKVNELEELVNSKFLDIENLNEVIQFQNEKIKSLELEPNYKEKLEELQIEHENLSRENERLKNESKQHNEDIINNVANYSSQLGSLISHWKENRANSSFLESSSSLISVSDENGEKTVGEPYGDQSRHHRVVINKLTNRLDDLLERSQELTISKEKLSSEYHALKMEHSSLSQDVLVKENEIKKIQNDYKESISSMDSASKALMVSQRELEKYKSLNKKLIDELDELKFKNGVCSENFENGLRSTEESSNNVKNSNSIRENQFNIKINDLKAELFITNQERDDLKSEVLELKKRLLNLENNTKQVNEDADSDLL	–
